Results reported in PMC7468127, “Structural basis of redox modulation on chloroplast ATP synthase” (Communications Biology, 2020).

T1: chloroplast ATP synthase (CF1FO) γ subunit (Spinacia oleracea, UniProt P05435 42-364, disulfide γCys240-γCys246 in the oxidized (IBZ) sample; free cysteines in the reduced (DTT) sample)
T1 construct: ATP synthase gamma chain, chloroplastic, Spinacia oleracea; endogenous subunit of the purified complex; One molecule for both redox states; also called central shaft γ subunit; source: purified from spinach leaves as part of the CF1FO complex (ammonium sulfate, sucrose gradient, anion exchange, SEC)
T1 sequence (looked up): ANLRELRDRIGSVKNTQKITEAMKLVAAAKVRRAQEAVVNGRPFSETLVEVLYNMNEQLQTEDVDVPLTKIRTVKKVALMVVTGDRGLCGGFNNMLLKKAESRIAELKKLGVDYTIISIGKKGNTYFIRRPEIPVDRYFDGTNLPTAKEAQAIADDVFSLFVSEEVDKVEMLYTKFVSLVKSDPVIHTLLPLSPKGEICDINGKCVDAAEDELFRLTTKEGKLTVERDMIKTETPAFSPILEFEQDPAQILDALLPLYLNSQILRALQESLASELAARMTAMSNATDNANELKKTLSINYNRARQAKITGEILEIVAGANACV

B1: chloroplast ATP synthase (CF1FO) subunit c (c14 ring) (natural protein, Spinacia oleracea, UniProt P69447 1-81, looked up)
chain: MNPLIAAASVIAAGLAVGLASIGPGVGQGTAAGQAVEGIARQPEAEGKIRGTLLLSLAFMEALTIYGLVVALALLFANPFV
notes: ATP synthase subunit c, chloroplastic, Spinacia oleracea; endogenous subunit of the purified complex; also called c ring; c-ring rotor; source: purified from spinach leaves as part of the CF1FO complex (ammonium sulfate, sucrose gradient, anion exchange, SEC); copies: 14
B2: chloroplast ATP synthase (CF1FO) ε subunit (natural protein, Spinacia oleracea, UniProt P00833 1-134, looked up)
chain: MTLNLCVLTPNRSIWNSEVKEIILSTNSGQIGVLPNHAPTATAVDIGILRIRLNDQWLTLALMGGFARIGNNEITILVNDAERGSDIDPQEAQQTLEIAEANLRKAEGKRQKIEANLALRRARTRVEASNTISS
notes: ATP synthase epsilon chain, chloroplastic, Spinacia oleracea; endogenous subunit of the purified complex; source: purified from spinach leaves as part of the CF1FO complex (ammonium sulfate, sucrose gradient, anion exchange, SEC)

How the values were obtained:
[1] = biological target: the molecule itself; assay: cryo-EM structure
[2] = biological target: T1, chloroplast ATP synthase (CF1FO) γ …; assay: cryo-EM structure; details: both partners purified

| Binder | stoichiometry N [1] | binding result [2] |
| --- | --- | --- |
| B1 | 14 | – |
| B2 | – | binds |
